Measured values: patent publication US20050221287A1 (CONSEJO SUPERIOR DE INVESTIGACIONES CIENTIFICAS PHARMACIA …, published 2005)

Tests used:
STAT4 = molecular target: T1, STAT4 (human, UniProt Q14765 1-748); test: association with CXCR4 in CXCL12-stimulated IM-9 cells (data not shown)
T1 sequence (looked up): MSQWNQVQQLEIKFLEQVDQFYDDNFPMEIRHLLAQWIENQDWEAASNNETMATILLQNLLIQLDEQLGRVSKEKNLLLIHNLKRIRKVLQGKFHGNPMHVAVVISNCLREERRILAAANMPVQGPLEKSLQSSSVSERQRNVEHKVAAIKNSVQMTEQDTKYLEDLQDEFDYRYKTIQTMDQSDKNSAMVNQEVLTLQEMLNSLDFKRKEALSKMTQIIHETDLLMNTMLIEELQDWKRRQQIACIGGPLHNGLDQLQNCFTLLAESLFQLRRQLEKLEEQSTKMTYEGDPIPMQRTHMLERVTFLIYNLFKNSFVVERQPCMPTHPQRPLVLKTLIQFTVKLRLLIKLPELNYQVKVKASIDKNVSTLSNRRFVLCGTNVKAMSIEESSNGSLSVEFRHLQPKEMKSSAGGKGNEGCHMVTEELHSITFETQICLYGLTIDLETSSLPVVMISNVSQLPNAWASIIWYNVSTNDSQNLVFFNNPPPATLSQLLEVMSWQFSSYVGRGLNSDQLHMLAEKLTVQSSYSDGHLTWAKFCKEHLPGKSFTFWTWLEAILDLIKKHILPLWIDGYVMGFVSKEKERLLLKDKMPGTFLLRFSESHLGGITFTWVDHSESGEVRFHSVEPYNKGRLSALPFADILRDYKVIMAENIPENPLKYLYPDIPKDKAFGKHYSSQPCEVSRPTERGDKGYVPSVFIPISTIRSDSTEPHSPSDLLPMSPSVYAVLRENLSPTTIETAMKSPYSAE

STAT6 = molecular target: T2, STAT6 (human, UniProt P42226 2-847); test: as above
T2 sequence (looked up): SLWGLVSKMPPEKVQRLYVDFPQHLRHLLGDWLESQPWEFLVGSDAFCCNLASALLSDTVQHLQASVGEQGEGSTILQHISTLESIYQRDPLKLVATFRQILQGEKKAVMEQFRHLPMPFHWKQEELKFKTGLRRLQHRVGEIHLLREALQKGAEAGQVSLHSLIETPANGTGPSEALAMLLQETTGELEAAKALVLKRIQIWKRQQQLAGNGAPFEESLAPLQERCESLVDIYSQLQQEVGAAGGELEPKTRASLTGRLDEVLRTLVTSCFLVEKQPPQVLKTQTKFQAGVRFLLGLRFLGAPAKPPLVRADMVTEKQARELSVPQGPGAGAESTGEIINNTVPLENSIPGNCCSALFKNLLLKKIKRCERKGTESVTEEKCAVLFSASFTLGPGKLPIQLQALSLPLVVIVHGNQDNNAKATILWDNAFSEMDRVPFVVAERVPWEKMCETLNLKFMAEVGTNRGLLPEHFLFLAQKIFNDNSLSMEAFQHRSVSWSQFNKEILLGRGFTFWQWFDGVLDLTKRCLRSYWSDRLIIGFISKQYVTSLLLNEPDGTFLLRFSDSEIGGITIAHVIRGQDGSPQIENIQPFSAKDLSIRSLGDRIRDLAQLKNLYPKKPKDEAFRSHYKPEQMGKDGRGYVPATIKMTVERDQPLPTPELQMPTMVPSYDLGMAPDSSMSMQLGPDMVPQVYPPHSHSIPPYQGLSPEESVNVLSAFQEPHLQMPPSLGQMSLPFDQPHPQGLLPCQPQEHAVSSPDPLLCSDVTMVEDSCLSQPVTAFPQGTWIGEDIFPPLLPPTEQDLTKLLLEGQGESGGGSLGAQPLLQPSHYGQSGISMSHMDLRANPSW

STAT1 = molecular target: T3, STAT1 (human, UniProt P42224 2-750, limits assumed); test: association with CXCR4 in CXCL12-stimulated IM-9 cells
T3 sequence (looked up): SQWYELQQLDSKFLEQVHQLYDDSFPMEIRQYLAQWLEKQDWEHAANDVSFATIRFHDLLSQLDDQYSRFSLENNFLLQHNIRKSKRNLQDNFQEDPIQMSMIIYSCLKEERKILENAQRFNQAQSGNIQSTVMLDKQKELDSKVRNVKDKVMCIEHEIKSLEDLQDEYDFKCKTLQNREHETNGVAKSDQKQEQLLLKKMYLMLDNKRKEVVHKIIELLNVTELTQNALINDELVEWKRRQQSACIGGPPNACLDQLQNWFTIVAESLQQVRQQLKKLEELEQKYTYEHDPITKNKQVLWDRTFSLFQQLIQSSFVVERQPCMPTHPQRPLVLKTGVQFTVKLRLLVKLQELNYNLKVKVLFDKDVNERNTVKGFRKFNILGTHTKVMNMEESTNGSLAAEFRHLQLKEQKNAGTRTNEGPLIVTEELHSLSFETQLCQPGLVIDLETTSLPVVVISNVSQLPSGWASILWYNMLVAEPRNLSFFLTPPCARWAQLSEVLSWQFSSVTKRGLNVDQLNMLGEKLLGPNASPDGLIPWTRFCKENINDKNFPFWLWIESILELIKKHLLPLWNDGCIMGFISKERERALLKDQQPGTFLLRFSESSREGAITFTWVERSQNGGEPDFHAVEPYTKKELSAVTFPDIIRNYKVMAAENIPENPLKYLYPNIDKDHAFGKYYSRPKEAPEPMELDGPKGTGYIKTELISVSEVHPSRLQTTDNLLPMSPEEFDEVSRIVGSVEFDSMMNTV

STAT2 = STAT2 (human, UniProt P52630 1-851); test: as above
Chain of STAT2 (P52630 whole entry): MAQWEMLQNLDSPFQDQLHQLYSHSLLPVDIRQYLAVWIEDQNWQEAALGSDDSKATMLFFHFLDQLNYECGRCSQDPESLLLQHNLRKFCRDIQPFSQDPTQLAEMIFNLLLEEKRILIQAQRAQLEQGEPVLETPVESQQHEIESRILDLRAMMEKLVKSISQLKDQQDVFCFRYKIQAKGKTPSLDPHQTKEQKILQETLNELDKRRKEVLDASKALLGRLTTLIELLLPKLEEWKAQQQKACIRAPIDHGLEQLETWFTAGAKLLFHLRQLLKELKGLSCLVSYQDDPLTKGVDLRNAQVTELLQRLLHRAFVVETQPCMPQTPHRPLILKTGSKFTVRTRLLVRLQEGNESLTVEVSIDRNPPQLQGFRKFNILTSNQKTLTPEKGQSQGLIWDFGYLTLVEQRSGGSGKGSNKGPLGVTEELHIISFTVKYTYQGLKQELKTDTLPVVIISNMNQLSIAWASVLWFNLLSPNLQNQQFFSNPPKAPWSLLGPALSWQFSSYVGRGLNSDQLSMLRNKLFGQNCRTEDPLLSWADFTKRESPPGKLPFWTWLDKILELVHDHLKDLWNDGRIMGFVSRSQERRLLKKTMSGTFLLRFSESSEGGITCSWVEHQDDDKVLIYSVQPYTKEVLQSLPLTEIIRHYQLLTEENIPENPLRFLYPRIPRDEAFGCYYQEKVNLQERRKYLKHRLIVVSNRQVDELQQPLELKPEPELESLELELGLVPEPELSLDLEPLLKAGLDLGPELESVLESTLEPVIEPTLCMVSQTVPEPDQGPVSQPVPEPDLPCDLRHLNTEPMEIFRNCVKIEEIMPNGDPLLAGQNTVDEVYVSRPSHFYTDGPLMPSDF

STAT3 = STAT3 (human, UniProt P40763 2-770, limits assumed); test: as above
Chain of STAT3 (P40763 2-770 limits assumed): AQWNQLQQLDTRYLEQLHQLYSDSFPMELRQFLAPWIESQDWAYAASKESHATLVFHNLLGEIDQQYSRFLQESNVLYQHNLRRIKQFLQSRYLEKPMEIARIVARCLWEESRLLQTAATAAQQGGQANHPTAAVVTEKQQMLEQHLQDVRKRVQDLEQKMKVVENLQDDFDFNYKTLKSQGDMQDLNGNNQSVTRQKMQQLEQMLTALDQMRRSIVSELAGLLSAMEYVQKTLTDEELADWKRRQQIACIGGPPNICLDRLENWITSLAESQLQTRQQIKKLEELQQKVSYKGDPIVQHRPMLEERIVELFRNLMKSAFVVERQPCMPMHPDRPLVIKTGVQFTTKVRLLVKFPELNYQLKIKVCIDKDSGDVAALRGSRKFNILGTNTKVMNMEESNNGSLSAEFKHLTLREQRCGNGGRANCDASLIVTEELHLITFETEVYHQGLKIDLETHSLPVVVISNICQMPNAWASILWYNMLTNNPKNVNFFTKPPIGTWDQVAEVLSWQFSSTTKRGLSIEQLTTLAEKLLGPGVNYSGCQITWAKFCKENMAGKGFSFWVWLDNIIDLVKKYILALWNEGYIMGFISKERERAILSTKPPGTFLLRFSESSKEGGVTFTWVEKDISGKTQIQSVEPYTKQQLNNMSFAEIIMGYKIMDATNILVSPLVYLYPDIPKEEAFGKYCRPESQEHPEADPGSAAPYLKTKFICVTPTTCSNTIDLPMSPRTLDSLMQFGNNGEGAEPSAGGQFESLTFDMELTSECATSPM

JAK1 = molecular target: T4, JAK1 (human, UniProt P23458 1-1154); test: as above
T4 construct: Endogenous protein of IM-9 cell lysates
T4 sequence (P23458 whole entry): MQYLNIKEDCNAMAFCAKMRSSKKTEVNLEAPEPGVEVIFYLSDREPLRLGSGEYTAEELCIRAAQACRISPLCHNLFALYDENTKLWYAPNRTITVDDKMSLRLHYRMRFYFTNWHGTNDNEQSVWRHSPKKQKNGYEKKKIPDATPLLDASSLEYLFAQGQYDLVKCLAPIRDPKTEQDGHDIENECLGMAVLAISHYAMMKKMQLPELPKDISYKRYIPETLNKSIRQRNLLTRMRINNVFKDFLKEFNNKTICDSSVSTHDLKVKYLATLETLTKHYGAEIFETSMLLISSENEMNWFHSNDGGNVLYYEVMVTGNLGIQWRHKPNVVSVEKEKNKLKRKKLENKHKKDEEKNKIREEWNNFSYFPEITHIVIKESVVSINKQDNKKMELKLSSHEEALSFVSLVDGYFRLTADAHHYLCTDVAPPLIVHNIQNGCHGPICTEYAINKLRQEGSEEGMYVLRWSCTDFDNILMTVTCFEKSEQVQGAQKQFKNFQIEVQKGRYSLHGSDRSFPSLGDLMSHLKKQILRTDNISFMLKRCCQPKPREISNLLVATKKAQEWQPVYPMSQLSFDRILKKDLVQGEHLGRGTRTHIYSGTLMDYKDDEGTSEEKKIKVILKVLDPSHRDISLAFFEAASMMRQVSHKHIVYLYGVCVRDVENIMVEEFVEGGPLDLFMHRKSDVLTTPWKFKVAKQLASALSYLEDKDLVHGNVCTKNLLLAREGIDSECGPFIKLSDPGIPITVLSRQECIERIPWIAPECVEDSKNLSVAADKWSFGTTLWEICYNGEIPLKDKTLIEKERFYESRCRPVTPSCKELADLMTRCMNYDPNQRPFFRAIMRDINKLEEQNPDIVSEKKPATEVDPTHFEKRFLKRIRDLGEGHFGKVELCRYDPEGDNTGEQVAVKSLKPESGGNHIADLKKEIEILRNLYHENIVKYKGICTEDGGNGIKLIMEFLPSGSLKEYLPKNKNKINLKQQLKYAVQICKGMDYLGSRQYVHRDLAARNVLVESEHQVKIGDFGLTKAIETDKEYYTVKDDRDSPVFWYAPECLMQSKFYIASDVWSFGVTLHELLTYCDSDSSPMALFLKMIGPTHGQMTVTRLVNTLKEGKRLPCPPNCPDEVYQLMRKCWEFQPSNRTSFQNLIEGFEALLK

binding result (STAT4): no binding
binding result (STAT6): no binding
binding result (STAT1): binds
binding result (STAT2): binds
binding result (STAT3): binds
binding result (JAK1): binds
B1: CXCR4 (receptor, human, UniProt P61073 1-352, looked up)
chain: MEGISIYTSDNYTEEMGSGDYDSMKEPCFREENANFNKIFLPTIYSIIFLTGIVGNGLVILVMGYQKKLRSMTDKYRLHLSVADLLFVITLPFWAVDAVANWYFGNFLCKAVHVIYTVNLYSSVLILAFISLDRYLAIVHATNSQRPRKLLAEKVVYVGVWIPALLLTIPDFIFANVSEADDRYICDRFYPNDLWVVVFQFQHIMVGLILPGIVILSCYCIIISKLSHSKGHQKRKALKTTVILILAFFACWLPYYIGISIDSFILLEIIKQGCEFENTVHKWISITEALAFFHCCLNPILYAFLGAKFKTSAQHALTSVSRGSSLKILSKGKRGGHSSVSTESESSSFHSS
notes: whole, on cells; Endogenous receptor of IM-9 cells: on the cell surface in flow cytometry, immunoprecipitated from digitonin lysates in the co-immunoprecipitations; also called CXCR4 receptor; the CXCR4
